This note sets out measurements from publication PMC10527606.

Assay [1] concerns the target humanized 5c8 (hu5c8) (human (humanized antibody)). Put plainly: SPR. A general note: Surface plasmon resonance follows binding to a sensor surface in real time, without labels.
Another assay deals with TNX-1500 (human). Put plainly: SPR.

As usually defined, the Kd is the concentration at which binding is half-saturated. High values mean lower affinity, low ones higher affinity. “FcγRIIIaF (from UniProt P08637 17-208) (receptor)” came in with a Kd in assay [1] of 1700 nM.

In assay [1], “FcγRIIIaV (from UniProt P08637 17-208) (receptor)” showed a Kd of 330 nM.

With “FcγRIIaH (from UniProt P12318 34-217) (receptor)”, the figures for the Kd (with TNX-1500 (human); in assay [1]) were 7100 nM and 510 nM, respectively.

The substance “FcγRIIbF (from UniProt P31994 43-217) (receptor)” had a Kd in assay [1] of 970 nM.

Take “FcγRIa (from UniProt P12314 16-292) (receptor)”: the results for the Kd (in the assay with TNX-1500 (human); in assay [1]) were 8.7 nM and 0.033 nM, respectively.
